Results reported in IntAct's records for PubMed 20639899.

B1: E1B 55 kDa protein (Human adenovirus C serotype 5 (HAdV-5)), P03243-1 (parent)
chain: MERRNPSERGVPAGFSGHASVESGCETQESPATVVFRPPGDNTDGGAAAAAGGSQAAAAGAEPMEPESRPGPSGMNVVQVAELYPELRRILTITEDGQGLKGVKRERGACEATEEARNLAFSLMTRHRPECITFQQIKDNCANELDLLAQKYSIEQLTTYWLQPGDDFEEAIRVYAKVALRPDCKYKISKLVNIRNCCYISGNGAEVEIDTEDRVAFRCSMINMWPGVLGMDGVVIMNVRFTGPNFSGTVFLANTNLILHGVSFYGFNNTCVEAWTDVRVRGCAFYCCWKGVVCRPKSRASIKKCLFERCTLGILSEGNSRVRHNVASDCGCFMLVKSVAVIKHNMVCGNCEDRASQMLTCSDGNCHLLKTIHVASHSRKAWPVFEHNILTRCSLHLGNRRGVFLPYQCNLSHTKILLEPESMSKVNLNGVFDMTMKIWKVLRYDETRTRCRPCECGGKHIRNQPVMLDVTEELRPDHLVLACTRAEFGSSDEDTD

Variants of: B1
Conditions: with PML

Variant | effect of a mutation on the interaction
V103D | disrupting interaction
K104R | disrupting interaction

Variants of: B1
Conditions: with pml_human PML

Variant | effect of a mutation on the interaction
K104R | disrupting interaction
